Experimental data from PMC7104408 (Proceedings of the National Academy of Sciences of the …, 2019).
Where two headings read alike, the source gives them in different places.

B1: EARLY FLOWERING 4 (natural protein)
chain: MKRNGETKRRRNVAEEAEQGEDPAMWENLDRNFRQVQSVLDRNRSLIQQVNDNHQSRMADNMSKNVALIQELNGNISKVVNMYSDLNTSFSSGFHGGKNGHDGGGAAGTRA
B2: Oligo 1 (PRR9 36 bp) (dsDNA)
DNA 1: ATGATGTCTTCTCAAGATTCGATAAAAATGGTGTTG
DNA 2: CAACACCATTTTTATCGAATCTTGAGAAGACATCAT
B3: Oligo 2 (AGATACGC) (dsDNA)
DNA 1: ATGATGTCTTCTCAAGATACGCTAAAAATGGTGTTG
DNA 2: CAACACCATTTTTAGCGTATCTTGAGAAGACATCAT
B4: Oligo 3 (AAGATCTT) (dsDNA)
DNA 1: ATGATGTCTTCTCAAGATCTTATAAAAATGGTGTTG
DNA 2: CAACACCATTTTTATAAGATCTTGAGAAGACATCAT
B5: Oligo 4 (GGATCCGA) (dsDNA)
DNA 1: ATGATGTCTTCTCGGATCCGATAAAAATGGTGTTG
DNA 2: CAACACCATTTTTATCGGATCCGAGAAGACATCAT
B6: Oligo 5 (ATATTCGA) (dsDNA)
DNA 1: ATGATGTCTTCTCGAATATTCGATAAAAATGGTGTTG
DNA 2: CAACACCATTTTTATCGAATATTCGAGAAGACATCAT
B7: crystal 10-mer AGATACGC (dsDNA)
DNA 1: TAGATACGCA
DNA 2: ATGCGTATCT
B8: crystal 10-mer ATATTCGA (dsDNA)
DNA 1: TATATTCGAA
DNA 2: ATTCGAATAT

What was measured:
[1] = biological target: T1, EARLY FLOWERING 3, full-length (Arabidopsis, UniProt O82804 1-695); test: native gel or EMSA
T1 sequence: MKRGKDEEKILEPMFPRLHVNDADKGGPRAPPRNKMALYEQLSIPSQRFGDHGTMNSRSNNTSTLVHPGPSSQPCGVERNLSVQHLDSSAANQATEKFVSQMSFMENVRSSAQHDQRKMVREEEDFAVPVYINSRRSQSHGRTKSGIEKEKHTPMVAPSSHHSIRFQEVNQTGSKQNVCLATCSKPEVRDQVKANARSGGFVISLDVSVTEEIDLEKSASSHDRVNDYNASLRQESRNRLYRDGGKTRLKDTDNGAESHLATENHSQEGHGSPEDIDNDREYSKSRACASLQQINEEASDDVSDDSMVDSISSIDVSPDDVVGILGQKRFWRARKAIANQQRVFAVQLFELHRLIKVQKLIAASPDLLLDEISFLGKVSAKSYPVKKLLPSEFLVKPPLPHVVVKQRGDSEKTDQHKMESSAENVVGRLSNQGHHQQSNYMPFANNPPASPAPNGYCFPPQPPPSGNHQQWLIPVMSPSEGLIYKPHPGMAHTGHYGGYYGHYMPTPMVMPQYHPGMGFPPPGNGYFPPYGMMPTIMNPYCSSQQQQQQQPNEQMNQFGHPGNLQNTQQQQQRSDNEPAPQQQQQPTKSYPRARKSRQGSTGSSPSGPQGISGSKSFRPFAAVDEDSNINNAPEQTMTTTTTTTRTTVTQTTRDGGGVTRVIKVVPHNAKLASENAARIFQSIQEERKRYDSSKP

ELF4 = biological target: T2, ELF4 (UniProt O04211 1-111); test: EMSA
T2 sequence: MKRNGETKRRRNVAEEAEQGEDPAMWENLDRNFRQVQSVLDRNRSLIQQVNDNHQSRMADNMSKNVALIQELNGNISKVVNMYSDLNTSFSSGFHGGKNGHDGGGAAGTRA

ELF3 = biological target: T3, ELF3 (UniProt O82804 1-695); test: EMSA
T3 sequence: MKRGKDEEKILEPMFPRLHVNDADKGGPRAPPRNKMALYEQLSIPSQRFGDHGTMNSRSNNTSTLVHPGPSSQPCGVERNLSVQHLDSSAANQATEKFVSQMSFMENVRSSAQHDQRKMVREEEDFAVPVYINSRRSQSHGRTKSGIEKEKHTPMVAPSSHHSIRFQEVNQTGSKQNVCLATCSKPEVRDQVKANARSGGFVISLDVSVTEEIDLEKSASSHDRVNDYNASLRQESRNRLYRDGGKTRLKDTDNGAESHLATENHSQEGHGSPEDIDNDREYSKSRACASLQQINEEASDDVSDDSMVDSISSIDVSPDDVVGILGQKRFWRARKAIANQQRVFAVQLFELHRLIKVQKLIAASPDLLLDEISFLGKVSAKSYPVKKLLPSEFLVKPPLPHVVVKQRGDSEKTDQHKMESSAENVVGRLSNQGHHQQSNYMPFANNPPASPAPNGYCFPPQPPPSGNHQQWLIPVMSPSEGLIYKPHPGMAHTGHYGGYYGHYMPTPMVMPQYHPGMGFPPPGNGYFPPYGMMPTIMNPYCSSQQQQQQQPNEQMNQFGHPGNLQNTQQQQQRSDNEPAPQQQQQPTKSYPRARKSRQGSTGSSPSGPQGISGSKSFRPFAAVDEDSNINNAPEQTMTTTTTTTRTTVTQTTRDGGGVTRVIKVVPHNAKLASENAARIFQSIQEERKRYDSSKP

LUXFL;ELF3;ELF4 = biological target: T4, LUXFL;ELF3;ELF4 (Arabidopsis thaliana?;Arabidopsis …, UniProt Q9SNB4;O82804;O04211 1-323;1-695;1-111, ||); test: EMSA
T4 sequence 1: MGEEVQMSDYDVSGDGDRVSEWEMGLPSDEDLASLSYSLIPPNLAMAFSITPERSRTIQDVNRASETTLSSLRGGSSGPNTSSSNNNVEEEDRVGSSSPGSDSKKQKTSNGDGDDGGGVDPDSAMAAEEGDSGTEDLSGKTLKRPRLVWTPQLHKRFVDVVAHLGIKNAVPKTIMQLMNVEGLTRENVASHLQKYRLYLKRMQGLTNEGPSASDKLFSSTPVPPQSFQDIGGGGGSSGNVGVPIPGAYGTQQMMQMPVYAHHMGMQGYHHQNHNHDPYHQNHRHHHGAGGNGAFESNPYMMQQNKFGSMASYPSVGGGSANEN
T4 sequence 2: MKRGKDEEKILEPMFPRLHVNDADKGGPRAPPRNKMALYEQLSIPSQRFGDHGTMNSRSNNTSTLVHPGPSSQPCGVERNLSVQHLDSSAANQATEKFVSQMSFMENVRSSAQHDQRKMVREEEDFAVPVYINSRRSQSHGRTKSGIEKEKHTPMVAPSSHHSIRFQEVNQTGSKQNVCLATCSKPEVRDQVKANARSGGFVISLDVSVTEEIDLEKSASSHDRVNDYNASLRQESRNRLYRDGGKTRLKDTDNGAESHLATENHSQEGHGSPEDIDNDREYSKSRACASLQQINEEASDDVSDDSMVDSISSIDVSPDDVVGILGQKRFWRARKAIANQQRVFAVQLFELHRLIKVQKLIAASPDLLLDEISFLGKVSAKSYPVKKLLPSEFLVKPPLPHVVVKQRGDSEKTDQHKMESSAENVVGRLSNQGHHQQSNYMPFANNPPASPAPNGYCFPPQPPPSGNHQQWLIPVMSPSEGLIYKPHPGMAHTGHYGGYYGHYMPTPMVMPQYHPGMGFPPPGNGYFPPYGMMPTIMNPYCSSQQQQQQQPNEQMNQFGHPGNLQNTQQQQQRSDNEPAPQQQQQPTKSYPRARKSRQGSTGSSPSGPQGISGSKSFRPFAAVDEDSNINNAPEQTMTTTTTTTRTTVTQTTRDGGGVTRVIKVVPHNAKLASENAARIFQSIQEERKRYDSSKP
T4 sequence 3: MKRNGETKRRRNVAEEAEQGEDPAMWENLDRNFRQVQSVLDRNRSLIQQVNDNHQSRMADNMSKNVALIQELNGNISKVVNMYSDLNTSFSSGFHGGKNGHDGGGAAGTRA

LUXFL R146A = biological target: T5, LUXFL R146A (UniProt Q9SNB4 1-323, R146A); test: EMSA
T5 sequence: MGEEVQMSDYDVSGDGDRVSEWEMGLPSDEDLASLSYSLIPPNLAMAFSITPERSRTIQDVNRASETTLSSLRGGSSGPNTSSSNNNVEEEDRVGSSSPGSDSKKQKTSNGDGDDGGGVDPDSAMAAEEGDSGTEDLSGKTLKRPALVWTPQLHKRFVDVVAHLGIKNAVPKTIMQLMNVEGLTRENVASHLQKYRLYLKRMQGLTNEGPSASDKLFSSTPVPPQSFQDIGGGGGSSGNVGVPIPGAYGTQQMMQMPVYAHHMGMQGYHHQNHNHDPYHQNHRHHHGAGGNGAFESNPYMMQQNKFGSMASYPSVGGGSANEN

LUXMYB [2] = biological target: T6, LUXMYB (UniProt Q9SNB4 139-200); test: EMSA
T6 sequence: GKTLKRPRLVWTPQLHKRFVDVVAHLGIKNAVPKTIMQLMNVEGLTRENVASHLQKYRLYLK

LUXFL = biological target: T7, LUXFL (UniProt Q9SNB4 1-323); test: EMSA
T7 sequence: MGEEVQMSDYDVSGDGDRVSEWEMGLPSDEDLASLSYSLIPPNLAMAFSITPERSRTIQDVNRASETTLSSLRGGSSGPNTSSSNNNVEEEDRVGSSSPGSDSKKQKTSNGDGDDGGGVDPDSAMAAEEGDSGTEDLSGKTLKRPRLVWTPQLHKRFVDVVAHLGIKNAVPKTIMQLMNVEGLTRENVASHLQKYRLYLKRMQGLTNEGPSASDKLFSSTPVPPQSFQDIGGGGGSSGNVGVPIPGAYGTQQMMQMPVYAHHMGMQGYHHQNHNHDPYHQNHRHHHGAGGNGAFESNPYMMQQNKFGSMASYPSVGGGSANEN

LUXMYB R146A = biological target: T8, LUXMYB R146A (UniProt Q9SNB4 139-200, R146A); test: EMSA
T8 sequence: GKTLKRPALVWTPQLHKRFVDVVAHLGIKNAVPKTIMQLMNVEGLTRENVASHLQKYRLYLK

LUXMYB [3] = biological target: T6, LUXMYB; test: crystal structure
LUXMYB [4] = biological target: T6, LUXMYB; test: crystal structure; remark: listed apart in the source

Row | Binder | Kd (LUXFL R146A) [nM] | Kd (LUXMYB [2]) [nM] | Kd (LUXFL) [nM] | Kd (LUXMYB R146A) [nM] | further results
1 | B1 |  |  |  |  | binding result [1]: binds
2 | B2 | 105 ± 11.8 | 37 ± 2.9 | 93 ± 5.8 | 50 ± 2.4 | binding result (ELF4): no binding; binding result (ELF3): no binding; binding result (LUXFL;ELF3;ELF4): binds
3 | B3 | 336 ± 4.8 | 6.5 ± 1.4 | 98 ± 2.9 | 50 ± 1.8 | 
4 | B4 | 204 ± 6.7 | 14 ± 1.8 | 93 ± 3.5 | 63 ± 3.1 | 
5 | B5 | 164 ± 4.2 | 17 ± 2.1 | 118 ± 10.6 | 120 ± 1 | 
6 | B6 |  | 43 ± 4.2 | 178 ± 3.5 | 137 ± 13 | 
7 | B7 |  |  |  |  | binding result (LUXMYB [3]): binds
8 | B8 |  |  |  |  | binding result (LUXMYB [4]): binds
